T1: MusCD100 (cell surface) (mouse, UniProt O09126)
T1 chain: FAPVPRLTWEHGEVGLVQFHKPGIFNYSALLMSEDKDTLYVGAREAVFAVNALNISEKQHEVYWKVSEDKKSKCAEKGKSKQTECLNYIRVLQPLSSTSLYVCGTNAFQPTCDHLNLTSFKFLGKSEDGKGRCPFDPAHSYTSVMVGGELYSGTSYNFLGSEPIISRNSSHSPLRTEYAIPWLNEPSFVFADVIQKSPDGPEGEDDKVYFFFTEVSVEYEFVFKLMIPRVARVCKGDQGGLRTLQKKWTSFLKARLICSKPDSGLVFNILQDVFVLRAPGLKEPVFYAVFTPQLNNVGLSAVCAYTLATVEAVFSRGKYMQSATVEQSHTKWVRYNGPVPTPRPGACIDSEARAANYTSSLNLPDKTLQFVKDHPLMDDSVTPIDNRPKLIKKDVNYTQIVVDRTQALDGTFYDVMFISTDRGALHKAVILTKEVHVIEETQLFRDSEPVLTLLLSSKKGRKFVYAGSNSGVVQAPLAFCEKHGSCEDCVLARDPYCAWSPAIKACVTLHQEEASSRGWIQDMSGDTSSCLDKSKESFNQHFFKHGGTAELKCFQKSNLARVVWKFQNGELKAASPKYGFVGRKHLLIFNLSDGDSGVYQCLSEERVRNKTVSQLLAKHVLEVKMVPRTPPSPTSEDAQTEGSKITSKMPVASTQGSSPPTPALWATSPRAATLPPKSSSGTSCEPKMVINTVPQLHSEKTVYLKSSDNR

T2: MusCD100-His (mouse, UniProt O09126)
T2 chain: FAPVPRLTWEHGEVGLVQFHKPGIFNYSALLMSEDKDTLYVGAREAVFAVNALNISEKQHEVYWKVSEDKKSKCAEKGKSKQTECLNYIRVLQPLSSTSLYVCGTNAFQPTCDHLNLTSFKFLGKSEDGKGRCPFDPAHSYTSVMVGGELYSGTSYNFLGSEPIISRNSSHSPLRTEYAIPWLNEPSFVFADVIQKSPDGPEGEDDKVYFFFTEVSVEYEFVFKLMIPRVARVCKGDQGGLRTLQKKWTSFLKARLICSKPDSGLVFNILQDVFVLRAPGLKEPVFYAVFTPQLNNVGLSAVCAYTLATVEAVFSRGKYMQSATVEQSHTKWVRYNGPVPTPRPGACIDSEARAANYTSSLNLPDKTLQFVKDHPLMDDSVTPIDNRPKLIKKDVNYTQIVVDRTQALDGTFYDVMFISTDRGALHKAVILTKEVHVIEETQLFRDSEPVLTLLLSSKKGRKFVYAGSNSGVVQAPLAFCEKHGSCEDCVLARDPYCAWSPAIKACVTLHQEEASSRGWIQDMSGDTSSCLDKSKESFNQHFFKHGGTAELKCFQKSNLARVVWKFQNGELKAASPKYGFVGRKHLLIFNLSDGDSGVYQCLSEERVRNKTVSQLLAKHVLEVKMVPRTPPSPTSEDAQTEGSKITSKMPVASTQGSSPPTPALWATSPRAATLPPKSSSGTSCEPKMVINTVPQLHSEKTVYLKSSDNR

B1: A15 (antibody, V domains shown)
VH: EVQLLESGGGLIQPGGSLRLSCAASGFTVSSNYMSWVRQAPGKGLEWVSVIYSGGSTYYADSVKGRFTISRDNSKNTLYLQMNSLRAEDTAVYYCAREVEGGMDVWGQGTTVTVSS
VL: SYVLTQPPSVSVSPGQTASIICSGDKLGDKYVYWYQQKSGQSPVLVIYQDRKRPSGIPERFSGSNSGNTASLAISGLQSEDEADYYCAAWDDSLNGWVFGGGTKLTVL
B2: C-C081 (antibody, V domains shown)
VH: QVQLLESGGGLVKPGGSLRLSCAASGFTFSSYSMNWVRQAPGKGLEWVSSISSSSSYIYYADSVKGRFTISRDNAKNSLYLQMNSLRAEDTAVYYCARDHYPGPDAFDVWGQGTMVTVSS
VL: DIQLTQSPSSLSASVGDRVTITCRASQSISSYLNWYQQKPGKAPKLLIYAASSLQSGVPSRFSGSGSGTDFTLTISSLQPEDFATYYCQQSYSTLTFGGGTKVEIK
B3: C-B71 (antibody, V domains shown)
VH: QVQLQESGPGLVKPSQTLSLTCTVSGGSISSGGYYWSWIRQHPGKGLEWIGYIYYSGSTYYNPSLKSRVTISVDTSKNQFSLKLSSVTAADTAVYYCAREGVAAAGIDYWGQGTPVTVSS
VL: NIQLTQSPSSVSASVGDRVTITCRASQGISSWLAWYQQKPGKAPKLLISTASSVQSGVPTRFSASGSGTDFTLTISSLQPEDFATYYCQQGYRTPWTFGQGTKVEIK
B4: H96 (antibody, V domains shown)
VH: QVQLQQWGAGLLKPSETLSLTCAVYGGSFSGYYWSWIRQPPGKGLEWIGEINHSGSTNYNPSLKSRVTISVDTSKNQFSLKLSSVTAADTAVYYCARESNSYGYGTDYWGQGTLVTVSS
VL: QSALTQPPSVSVSPGQTATITCSGDKLGEKYAFWYQQKPGQSPVLVIYQDNKRPSGIPERFTGSNSGNTATLTIFGTQTMDEADYYCQAWDSSTYVFGTGTKVTVL
B5: H5 (antibody, V domains shown)
VH: QLQLQESGPGLVKPPGTLSLTCAVSGGSISSSNWWSWVRQPPGKGLEWIGEIYHSGSTNYNPSLKSRVTISVDTSKNQFSLKLSSVTAADTAVYYCAVYDFWSGSGLDYWGQGTLVTVSS
VL: SYVLTQPPSVSVSPGQTASITCSGDKLGDKFASWYQQKPGQSPVLVIYQDRKRPSRIPERFSGSNSGNTATLTITGTQTIDEADYYCQAWDSGTVIFGGGTKLTVL
B6: H12 (antibody, V domains shown)
VH: QVQLQESGPGLVKPSGTLSLTCAVSGGSISSSNWWSWVRQPPGKGLEWIGEIYHSGSTNYNPSLKSRVTISVDKSKNQFSLKLSSVTAADTAVYYCARFVSSGYLGAFDIWGQGTMVTVSS
VL: QSVLTQPPSVSVSPGQTASITCSGDRLGDKYSYWYQQKPGQSPVLVIYQDSKRPSGIPERFSGSNSGNTATLTISGTQAMDEADYYCQVWDSSTAVFGGGTKLTVL
B7: C-C171 (antibody, V domains shown)
VH: QVQLQESGPGLVKPSGTLSLSCTVSGGSMSSNYLWSWVRQTPGKGLQWIGDIFHSGRTYYNPSLKRRVTISVDKSKNQFSLKLSSVTAADTAVYYCARQGWTTPFDYWGQGTPVTVSS
VL: DIQLTQSPSSVSASVGDRVTITCRASQGISSWLAWYQQKPGKAPKLLIYAASSLQSGVPSRFSGSGSGTDFTLTISSLQPEDFATYYCLQDVYYPWTFGQGTTVEIK
B8: A14 (antibody, V domains shown)
VH: ETQLVESGGGLVQPGGSLRLSCAASGFPFSSYEMNWVRQAPGKGLEWVAEISSSGSTIYYADSVKGRFTISRDNAKKSLYLQMNSLRAEDTAVYYCARGRFEGYCSSTNCHTGAFDFWGQGTMVTVSS
VL: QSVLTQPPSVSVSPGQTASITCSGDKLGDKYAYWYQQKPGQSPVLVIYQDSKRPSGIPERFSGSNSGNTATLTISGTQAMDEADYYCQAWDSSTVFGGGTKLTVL
B9: H74 (antibody, V domains shown)
VH: QVQLQQWGAGLLKPSETLSLTCAVYGGSFSGYYWSWIRQPPGKGLEWIGEINHSGSTNYNPSLKSRVTISVDTSKNQFSLKLSSVTAADTAVYYCAGTRWLQFPLNYWGQGTLVTVSS
VL: SYVLTQPPSVSVSPGQTASITCSGDKLGDKYAYWYQQKPGQSPVLVLYQDAKRPSGIPERFSGSNSGNTATLTISGTQAMDEADYYCQAWDSSTAGYVFGTGTKVTVL
B10: H21 (antibody, V domains shown)
VH: EVQLVQSGGGLVQPGRSLRLSCAASGFTFDDYAMHWVRQAPGKGLEWVSGISWNSGSIGYADSVKGRFTISRDNAKNSLYLQMNSLRAEDTALYYCAKDIGGSYFDYYYYGMDVWGQGTLVTVSS
VL: EIVLTQSPATLSLSPGERATLSCRTSHNVNTYIAWYQQKPGQAPRLLFYDSSTRLPDTPARFSGSGSGTDFTLTISSLEPEDFAVYYCQQRTSWPLTFGGGTKVEIK
B11: B13 (antibody, V domains shown)
VH: QVQLQQWGAGLLKPSETLSLTCAISSGSFSGYYWTWIRQPPGKGLEWIGETNHNGFTTYNTSLKSRITISIDASKNQFYLNLSSVTAADTATYFCARGPAYYADALDGFDIWGQGTMVTVSS
VL: QSVLTQPPSVSVSPGQTASITCSGDKLGDKYVSWYQQKPGQSPVLVIYQDNKRPSGIPERFSGSNSGNTATLTISGTQAMDEADYYCQAWDSSTKAYVFGAGTKVTVL

Key:
MusCD100 (cell surface) = biological target: T1, MusCD100 (cell surface); experiment: FACS, HEK293
HuCD100 (cell surface) [1] = biological target: T3, HuCD100 (cell surface) (human, UniProt Q92854); experiment: FACS, HEK293
HuCD100 (cell surface) [2] = biological target: T3, HuCD100 (cell surface); experiment: FACS, HuPBMC
HuCD100-His = HuCD100-His (human, UniProt Q92854); experiment: ELISA
MusCD100-His = biological target: T2, MusCD100-His; experiment: ELISA
HuCD100 (cell surface) [3] = biological target: T3, HuCD100 (cell surface); experiment: FACS, Jurkat

T3 sequence (Q92854 22-734): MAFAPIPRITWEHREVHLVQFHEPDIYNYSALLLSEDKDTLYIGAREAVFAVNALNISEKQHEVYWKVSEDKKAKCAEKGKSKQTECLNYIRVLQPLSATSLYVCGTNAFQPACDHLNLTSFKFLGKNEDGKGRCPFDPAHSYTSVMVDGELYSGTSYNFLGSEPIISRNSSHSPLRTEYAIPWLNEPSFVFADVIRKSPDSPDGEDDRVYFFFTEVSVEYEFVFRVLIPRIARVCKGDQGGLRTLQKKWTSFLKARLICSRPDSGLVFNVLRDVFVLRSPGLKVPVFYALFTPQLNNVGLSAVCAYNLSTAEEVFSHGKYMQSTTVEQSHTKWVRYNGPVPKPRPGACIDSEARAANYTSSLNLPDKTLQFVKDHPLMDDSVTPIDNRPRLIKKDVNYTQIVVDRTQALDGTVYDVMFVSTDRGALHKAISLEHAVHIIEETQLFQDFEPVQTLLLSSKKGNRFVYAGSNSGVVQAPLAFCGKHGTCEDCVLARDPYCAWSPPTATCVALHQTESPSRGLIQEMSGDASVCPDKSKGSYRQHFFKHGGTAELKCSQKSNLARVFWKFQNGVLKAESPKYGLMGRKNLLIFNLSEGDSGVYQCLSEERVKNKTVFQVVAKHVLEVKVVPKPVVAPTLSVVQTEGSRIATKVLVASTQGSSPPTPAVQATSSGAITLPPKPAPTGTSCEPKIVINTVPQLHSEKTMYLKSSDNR
HuCD100-His, sequence (Q92854 22-734): as above

Row | Binder | EC50 (MusCD100 (cell surface)) [µg/mL] | EC50 (HuCD100 (cell surface) [1]) [µg/mL] | EC50 (HuCD100 (cell surface) [2]) [µg/mL] | EC50 (HuCD100-His) [µg/mL] | EC50 (MusCD100-His) [µg/mL] | EC50 (HuCD100 (cell surface) [3]) [µg/mL]
1 | B1 | 0.0548 | 0.0269 | 0.00589 | 0.0076 | 0.0101 | 0.00851
2 | B2 | 0.185 | 0.0927 | 0.0194 | 0.0141 | 0.0541 | 0.73
3 | B3 | 0.118 | 0.0879 | 0.177 | 0.0119 | 0.00936 | 0.108
4 | B4 | 0.0504 | 0.0225 | 0.0104 | 0.00968 | 0.0109 | 0.0162
5 | B5 | 0.0606 | 0.0288 | 0.0132 | 0.00639 | 0.00722 | 0.0184
6 | B6 | 0.0758 | 0.0369 | 0.0177 | 0.0113 | 0.0112 | 0.028
7 | B7 | 0.31 | 0.167 | 0.0859 | 0.0107 | 0.031 | 0.449
8 | B8 | 0.0599 | 0.0277 | 0.0145 | 0.00613 | 0.00792 | 0.0195
9 | B9 | 0.05 | 0.0274 | 0.00828 | 0.00467 | 0.00478 | 0.0138
10 | B10 | 0.0814 | 0.0374 | 0.0154 | 0.00595 | 0.00686 | 0.0258
11 | B11 | 0.0697 | 0.0346 | 0.0109 | 0.00733 | 0.00842 | 0.0185

Reference: patent publication US20260347464 (published 2026)
